Measured values as given in article PMC3919264.

What was measured:
[1] = target: taxol-polymerized microtubules from bovine brain tubulin (bovine (purified from bovine brain)) (UniProt Q6B856); assay: co-sedimentation; MT pelleting assay with 2 mM AMP-PNP: Kif15 19-375 (1–12 µM) mixed with taxol-polymerized MTs (5 µM), 50 mM PIPES pH 6.9, 20 mM NaCl, 2 mM MgCl2, 1 mM DTT, room temperature 10 min, 100 000g at 25°C for 20 min, SDS–PAGE of supernatants and pellets
[2] = target: taxol-polymerized microtubules from bovine brain tubulin (bovine (purified from bovine brain)) (UniProt Q6B856)
[3] = target: taxol-polymerized microtubules from bovine brain tubulin (bovine (purified from bovine brain)) (UniProt Q6B856); remark: listed apart in the source
[4] = target: taxol-polymerized microtubules from bovine brain tubulin (bovine (purified from bovine brain)) (UniProt Q6B856); assay: co-sedimentation; MT pelleting assay with 4 mU apyrase ('nucleotide-free' state): Kif15 19-375 (1–12 µM) mixed with taxol-polymerized MTs (5 µM), 50 mM PIPES pH 6.9, 20 mM NaCl, 2 mM MgCl2, 1 mM DTT, room temperature 10 min, 100 000g at 25°C for 20 min, SDS–PAGE of supernatants and pellets

B1: Homo sapiens Kif15 motor domain and neck-linker region (Kif15 19-375) (domain or fragment)
chain: QPSNEGDAIKVFVRIRPPAERSGSADGEQNLCLSVLSSTSLRLHSNPEPKTFTFDHVADVDTTQESVFATVAKSIVESCMSGYNGTIFAYGQTGSGKTFTMMGPSESDNFSHNLRGVIPRSFEYLFSLIDREKEKAGAGKSFLCKCSFIEIYNEQIYDLLDSASAGLYLREHIKKGVFVVGAVEQVVTSAAEAYQVLSGGWRNRRVASTSMNRESSRSHAVFTITIESMEKSNEIVNIRTSLLNLVDLAGSERQKDTHAEGMRLKEAGNINRSLSCLGQVITALVDVGNGKQRHVCYRDSKLTFLLRDSLGGNAKTAIIANVHPGSRCFGETLSTLNFAQRAKLIKNKAVVNEDTQG
[1]
  Kd: 500 nM
  stoichiometry N: 1.1
[2]
  MT activation of Mant-ADP release, stopped flow, 25°C, various MT concentrations with chasing Mg2+-ATP (MTs here from pig brain tubulin; preliminary data): 1000 fold
[3]
  K 0.5,MT of the MT-stimulated ATPase activity (MTs 0 to 10 µM, 1 mM ATP, no KCl, 25°C): 1.1 µM
[4]
  Kd: 400 nM
  stoichiometry N: 1.3
